Experimental data taken from paper PMC3950713.
Substitutions are numbered along the chain they refer to.

Assays:
Assay in all cases: MST
HpDprA(5-217)R52E/K137E = target: T1, HpDprA(5-217)R52E/K137E (Helicobacter pylori 26695, UniProt O25100 5-217, R52E;K137E)
T1 sequence: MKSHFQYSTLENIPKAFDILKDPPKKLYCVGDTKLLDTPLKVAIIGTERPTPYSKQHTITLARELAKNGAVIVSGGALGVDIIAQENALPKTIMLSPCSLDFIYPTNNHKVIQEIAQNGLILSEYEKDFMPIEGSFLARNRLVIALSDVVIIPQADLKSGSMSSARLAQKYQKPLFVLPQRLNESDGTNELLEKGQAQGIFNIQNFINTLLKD

HpDprA full-length = target: T2, HpDprA full-length (Helicobacter pylori 26695, UniProt O25100 1-270)
T2 sequence: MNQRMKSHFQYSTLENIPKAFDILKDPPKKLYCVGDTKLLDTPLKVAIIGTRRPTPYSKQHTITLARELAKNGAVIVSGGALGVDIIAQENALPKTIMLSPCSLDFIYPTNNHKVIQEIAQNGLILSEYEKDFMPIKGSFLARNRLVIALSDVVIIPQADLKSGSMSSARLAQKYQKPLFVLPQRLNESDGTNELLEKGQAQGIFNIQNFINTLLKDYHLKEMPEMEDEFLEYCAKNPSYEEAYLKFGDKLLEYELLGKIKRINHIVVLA

HpDprA(5-217)K137E/R143E = target: T3, HpDprA(5-217)K137E/R143E (Helicobacter pylori 26695, UniProt O25100 5-217, K137E;R143E)
T3 sequence: T1 sequence with E48R, R139E

HpDprA(5-217)WT = target: T4, HpDprA(5-217)WT (Helicobacter pylori 26695, UniProt O25100 5-217)
T4 sequence: T1 sequence with E48R, E133K

HpDprA(5-217)K137E = target: T5, HpDprA(5-217)K137E (Helicobacter pylori 26695, UniProt O25100 5-217, K137E)
T5 sequence: T1 sequence with E48R

HpDprA(5-217)H8E = target: T6, HpDprA(5-217)H8E (Helicobacter pylori 26695, UniProt O25100 5-217, H8E)
T6 sequence: T1 sequence with H4E, E48R, E133K

For TTTTTTTTTTTTTTTTTTTTTTTTTTTTTTTTTTT (ssDNA) [dT35], the binding result (HpDprA(5-217)R52E/K137E) was “no binding”, the Kd (HpDprA full-length) was 2.26 ± 0.167 nM and the binding result (HpDprA(5-217)K137E/R143E) was “no binding”. It also gave a Kd (HpDprA(5-217)WT) of 31.5 ± 0.806 nM, a Kd (HpDprA(5-217)K137E) of 7220 ± 216 nM and a Kd (HpDprA(5-217)H8E) of 66.3 ± 0.721 nM.
